Results from patent US20060216705A1 (SUMITOMO CHEMICAL, published 2006).

T1: chimera protein of the VP16 transcription activating region and the bHLH-PAS region part of Clock (human, UniProt O15516 1-530)
T1 construct: domain: bHLH-PAS region part; also called VP16-Clock; pVP16-Clock (bHLH-PAS) product
T1 sequence: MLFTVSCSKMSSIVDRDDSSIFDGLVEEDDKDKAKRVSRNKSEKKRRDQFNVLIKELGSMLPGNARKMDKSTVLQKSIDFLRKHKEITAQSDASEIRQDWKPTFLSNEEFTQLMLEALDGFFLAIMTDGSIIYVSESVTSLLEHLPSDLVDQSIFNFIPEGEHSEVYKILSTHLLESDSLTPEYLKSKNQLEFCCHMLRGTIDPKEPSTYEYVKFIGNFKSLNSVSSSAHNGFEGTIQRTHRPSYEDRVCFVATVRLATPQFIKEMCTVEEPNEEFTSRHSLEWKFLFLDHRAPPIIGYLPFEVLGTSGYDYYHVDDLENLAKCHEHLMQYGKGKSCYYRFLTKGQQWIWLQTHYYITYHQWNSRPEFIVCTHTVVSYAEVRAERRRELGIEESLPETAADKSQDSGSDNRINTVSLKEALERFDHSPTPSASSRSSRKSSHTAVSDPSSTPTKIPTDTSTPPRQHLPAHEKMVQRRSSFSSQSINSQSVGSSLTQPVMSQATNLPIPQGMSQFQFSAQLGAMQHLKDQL

T2: chimera protein of the VP16 transcription activating region and the bHLH-PAS region part of Sim2 (human, UniProt Q14190 1-500)
T2 construct: domain: bHLH-PAS region part; also called VP16-Sim2; pVP16-Sim2 (bHLH-PAS) product
T2 sequence: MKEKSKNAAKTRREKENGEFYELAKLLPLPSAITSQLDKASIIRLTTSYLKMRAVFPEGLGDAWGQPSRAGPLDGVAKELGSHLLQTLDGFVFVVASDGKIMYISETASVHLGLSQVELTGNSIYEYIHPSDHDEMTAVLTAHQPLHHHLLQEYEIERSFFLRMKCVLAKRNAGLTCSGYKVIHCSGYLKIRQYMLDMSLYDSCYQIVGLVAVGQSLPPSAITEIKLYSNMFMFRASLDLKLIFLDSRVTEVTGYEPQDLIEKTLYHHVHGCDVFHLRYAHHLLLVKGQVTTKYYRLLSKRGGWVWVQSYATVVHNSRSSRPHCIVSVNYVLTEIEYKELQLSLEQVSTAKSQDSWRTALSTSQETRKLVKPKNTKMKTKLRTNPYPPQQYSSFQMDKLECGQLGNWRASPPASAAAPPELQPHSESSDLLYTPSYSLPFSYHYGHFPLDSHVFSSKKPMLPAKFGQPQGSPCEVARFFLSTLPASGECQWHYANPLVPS

B1: chimera protein of the DNA-binding region of GAL4 and the bHLH-PAS region part of the present transcription regulatory factor (mNXF) (other)
chain: MKLLSSIEQACDICRLKKLKCSKEKPKCAKCLKNNWECRYSPKTKRSPLTRAHLTEVESRLERLEQLFLLIFPREDLDMILKMDSLQDIKALLTGLFVQDNVNKDAVTDRLASVETDMPLTLRQHRISATSSSEESSNKGQRQLTVSMYRSTKGASKARRDQINAEIRNLKELLPLAEADKVRLSYLHIMSLACIYTRKGVFFAGGTPLAGPTGLLSAQELEDIVAALPGFLLVFTAEGKLLYLSESVSEHLGHSMVDLVAQGDSIYDIIDPADHLTVRQQLTMPSALDADRLFRCRFNTSKSLRRQSSGNKLVLIRGRFHAHPPGAYWAGNPVFTAFCAPLEPRPRPGPGPGPGPGPASLFLAMFQSRHAKDLALLDVSESVLIYLGFERSELLCKSWYGLLHPEDLAQASSQHYRLLAESGDIQAEMVVRLQAKHGGWTWIYCMLYSEGPEGPFTANNYPISDT
notes: Expressed in HeLa cells for the two-hybrid assay; also called Gal4-mNXF; Gal4-NXF

Legend:
[1] = biological target: B1; assay: mammalian two-hybrid assay in HeLa cells (Gal4-NXF + VP16-NXF, luciferase reporter)
[2] = biological target: T1, chimera protein of the VP16 …; assay: mammalian two-hybrid assay in HeLa cells (Gal4-NXF + VP16-X, luciferase reporter)
[3] = biological target: T2, chimera protein of the VP16 …; assay: as above

Binder | binding result [1] | binding result [2] | binding result [3]
chimera protein of the VP16 transcription activating region and the bHLH-PAS region part of the present transcription activating factor (mNXF) (other, also called VP16-NXF; pVP16-NXF (bHLH-PAS) product) MYRSTKGASKARRDQINAEIRNLKELLPLAEADKVRLSYLHIMSLACIYTRKGVFFAGGTPLAGPTGLLSAQELEDIVAALPGFLLVFTAEGKLLYLSESVSEHLGHSMVDLVAQGDSIYDIIDPADHLTVRQQLTMPSALDADRLFRCRFNTSKSLRRQSSGNKLVLIRGRFHAHPPGAYWAGNPVFTAFCAPLEPRPRPGPGPGPGPGPASLFLAMFQSRHAKDLALLDVSESVLIYLGFERSELLCKSWYGLLHPEDLAQASSQHYRLLAESGDIQAEMVVRLQAKHGGWTWIYCMLYSEGPEGPFTANNYPISDT | no binding | – | –
B1 | – | no binding | no binding
